Source: patent US20250090523A1, “PHARMACEUTICAL COMPOSITION OR DRUG KIT FOR ALLEVIATING OR TREATING FIBROTIC DISEASES, AND USE THEREOF” (SHANGHAI SYNVIDA BIOTECHNOLOGY CO. LTD., priority 2021, published 2025)

Tested on: IPF fibroblasts
Experiment: qPCR of extracellular matrix genes collagen 7a1 and matrix metalloproteinase inhibitor 1 in TGFβ-induced IPF fibroblasts
Type: cell-based, human
Details: Example 3, FIG. 4-6, TGFβ-induced IPF fibroblasts treated 48 hours, 18sRNA reference
From the text: IPF fibroblasts of patients were purchased from the ATCC cell library.
IPF fibroblasts in Method 2 were collected. Total mRNA was extracted by Trizol method (Invitrogen, Carlsbad, CA) according to standard protocols. Complementary DNA was synthesized using reverse transcriptase (Takara). ABI7000 Real-time PCR instrument (Life Technologies) was used to detect gene expression and the PCR primer sequences are shown in Table 1. The 18sRNA gene was used as an internal reference.
Experimental groups including anti-Pear1 antibodies LF11, LF15, LF16 used alone, and their combinations with pirfenidone or nintedanib respectively, and experimental groups including pirfenidone or nintedanib used alone and a control group were established. TGFβ-induced IPF fibroblasts were treated for 48 hours, and then cells were collected. The qPCR method was used to detect the effect on the synthesis of extracellular matrix proteins collagen 7a1 and matrix metalloproteinase inhibitor 1 (primers are shown in Table 1).

Molecule	inhibition of expression of extracellular matrix proteins (collagen 7a1, matrix metalloproteinase inhibitor 1) in IPF fibroblasts
Cc1ccc(=O)n(-c2ccccc2)c1 [pirfenidone, reference compound]	inhibit the expression of extracellular matrix proteins in IPF fibroblasts to some extent
COC(=O)c1ccc2c(c1)NC(=O)/C2=C(\Nc1ccc(N(C)C(=O)CN2CCN(C)CC2)cc1)c1ccccc1 [nintedanib, reference compound]	inhibit the expression of extracellular matrix proteins in IPF fibroblasts to some extent
LF16: anti-human Pear1 monoclonal antibody; VH SEQ ID NO: 5, VL SEQ ID NO: 20 (antibody, V domains shown) VH: EVQLQQSGPELVKPGASMKISCKASGYAFTGYTMNWVKQSHGKNLDWIGVINGYNGGTSYNQKFKGKATLTVDKSSSTAYMELLSLTSEDSAIYYCARGGPTTGFVYWGQGTLVTVSA VL: DIQMTQTSSSFSVSLGDRVTITCKASEDIYNRLAWYQQKPGNAPRLLISGATSLETGVPSRFSGSGSGKDYTLSITSLQTEDVATYYCQQYWSTPTFGAGTKLELK	inhibit the expression of extracellular matrix proteins in IPF fibroblasts to some extent
LF11: anti-human Pear1 monoclonal antibody; VH SEQ ID NO: 2, VL SEQ ID NO: 18 (antibody, V domains shown) VH: EVQLQQSGPELVKPGASMKISCKASGYSFTGYPMNWVKQTHGKNLEWIGLINPYNGGTSYNQKFKGKATLTVDKSSSTAYMELLSLTSDESAVYYCARGGVRPFDFWGQGTLVTVSA VL: DIVITQSPAIMSASPGEKVTMTCSARSSVSYMYWYQQKPGSSPRLLIYDTSKLASGVPVRFSGSGSGTSYSLTISRMEAEDAATYFCQQWSSYPPTFGGGTKLEIK	inhibit the expression of extracellular matrix proteins in IPF fibroblasts to some extent
LF15: anti-human Pear1 monoclonal antibody; VH SEQ ID NO: 4, VL SEQ ID NO: 19 (antibody, V domains shown) VH: EVQLQQSGPELVKPGASMKISCKASGYSFTGYTMNWVKQSHGENLEWIGVINPYNGGTSYNQKFKGKATLTVDKSFSTAYMEILSLTSEDSAVYYCSRGGGNSWFAYWGQGTLVTVSA VL: DIQMTQTSSYLSVSLGGRVTITCKASDHINNWLAWYQQKPGNAPRLLISGATSLETGVPSRFSGSGSGTDYSLTITSLQTEDVATYYCQQYWSIPTFGGGTRLEIK	inhibit the expression of extracellular matrix proteins in IPF fibroblasts to some extent
